# Test results reported in patent publication US20190119348A1, “PARATHYROID HORMONE RECEPTOR 1 ANTAGONIST AND INVERSE AGONIST POLYPEPTIDES AND METHODS OF THEIR USE” (The General Hospital Corporation, priority 2016, published 2019).
# Where two headings read alike, the source gives them in different places. Where no end group is shown, it is not given here.
# T1: human parathyroid hormone receptor 1 (hPTHR1) (human), Q03431
# T1 chain: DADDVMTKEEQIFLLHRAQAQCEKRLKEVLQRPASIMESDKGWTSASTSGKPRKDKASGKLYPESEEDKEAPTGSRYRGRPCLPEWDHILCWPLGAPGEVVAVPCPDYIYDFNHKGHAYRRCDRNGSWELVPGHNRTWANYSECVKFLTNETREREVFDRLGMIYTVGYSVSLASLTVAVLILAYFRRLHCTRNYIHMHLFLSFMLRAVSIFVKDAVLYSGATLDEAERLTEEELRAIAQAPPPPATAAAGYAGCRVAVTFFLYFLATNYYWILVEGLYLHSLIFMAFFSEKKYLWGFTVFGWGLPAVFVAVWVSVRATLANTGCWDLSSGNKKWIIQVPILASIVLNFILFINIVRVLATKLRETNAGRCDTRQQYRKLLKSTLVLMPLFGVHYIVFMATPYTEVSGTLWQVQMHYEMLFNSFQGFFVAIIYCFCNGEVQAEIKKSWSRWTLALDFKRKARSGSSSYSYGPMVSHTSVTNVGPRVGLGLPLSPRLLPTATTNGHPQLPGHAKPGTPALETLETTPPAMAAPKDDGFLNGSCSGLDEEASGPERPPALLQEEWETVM
# Experiments:
# hPTHR1-H223R (human) [1] = biological target: hPTHR1-H223R (human) (UniProt Q03431); assay: cell-based or functional assay
# [2] = biological target: T1, human parathyroid hormone receptor 1 …; assay: radioligand competition on GP-2.3 cells (hPTHR1), tracer 125I-PTH(1-34), n=4
# [3] = biological target: T1, human parathyroid hormone receptor 1 …; assay: cell-based or functional assay
# [4] = biological target: T1, human parathyroid hormone receptor 1 …; assay: radioligand competition on GP-2.3 cells (hPTHR1), tracer 125I-PTHrP(5-36), n=4
# hPTHR1-H223R (human) [5] = biological target: hPTHR1-H223R (human) (UniProt Q03431); assay: cell-based or functional assay; remark: listed apart in the source
IC50 [2] [nM],pIC50 [2],"IC50 (nanomolar value of the pIC50), antagonism of PTH(1-34)-induced cAMP response, GP-2.3 cells [3] [nM]","IC50 (nanomolar value of the pIC50), antagonism of PTH(1-34)-induced cAMP response, SGS-72 cells [3] [nM]","IC50 (nanomolar value of the pIC50), antagonism of PTHrP(1-36)-induced cAMP response, SGS-72 cells [3] [nM]","IC50, antagonism of PTH(1-34) (0.3 nM)-induced cAMP response, SGS-72 cells [3] [nM]","pIC50, antagonism of PTH(1-34) (0.3 nM)-induced cAMP response, SGS-72 cells [3]","pIC50, antagonism of PTH(1-34)-induced cAMP response (GloSensor), GP-2.3 cells [3]","pIC50, antagonism of PTH(1-34)-induced cAMP response, SGS-72 cells [3]","pIC50, antagonism of PTHrP(1-36)-induced cAMP response, SGS-72 cells [3]",IC50 [4] [nM],pIC50 [4],Binder,also measured
22.3,7.65 -log M,101,1,1,1.45,8.84 -log M,7 -log M,9.11 -log M,9.1 -log M,17.7,7.75 -log M,"IQLMHQRWKWIQDARRRAWLHKLIAEIHTAEI (modifications not checked) [dW12, W23-LA-PTH(5-36)-1949]","Reduction of basal cAMP, % vehicle; After ligand washout; GHR-10 cells (hPTHR1-H223R (human) [1]): 30 % vehicle; Reduction of basal cAMP, % vehicle; Ligand @ -6M; GHR-10 cells (hPTHR1-H223R (human) [1]): 41 % vehicle; IC50, antagonism of PTHrP(1-36) (0.3 nM)-induced cAMP response, SGS-72 cells [3]: 1.21 nM; pIC50, antagonism of PTHrP(1-36) (0.3 nM)-induced cAMP response, SGS-72 cells [3]: 8.92 -log M; washout assay: inhibition of the cAMP response to agonist applied after antagonist pre-treatment and rinsing [3]: > 90%"
–,–,–,–,–,–,–,–,–,–,–,–,IQLMHQRAKWIQDARRRAFLHKLIAEIHTAEI-NH2 [LA-PTH(5-36)-2012],"Reduction of basal cAMP, % vehicle; After ligand washout; GHR-10 cells (hPTHR1-H223R (human) [5]): -49 % vehicle; Reduction of basal cAMP, % vehicle; Ligand @ -6M; GHR-10 cells (hPTHR1-H223R (human) [5]): -15 % vehicle"
28.6,7.54 -log M,377,5,5,14.5,7.84 -log M,6.42 -log M,8.31 -log M,8.33 -log M,35.1,7.46 -log M,"FMHNLWKHLSSMERVEWLRKKLQDVHNY (modifications not checked) [dW12, Y34-bPTH(7-34)-1894]","pIC50, inhibition of the cAMP signal induced by PTH(1-34) (0.3 nM), SGS-72 cells [3]: 7.2 -log M; pIC50, inhibition of the cAMP signal induced by PTH(1-34) (1 nM), GP-2.3 cells [3]: 6.4 -log M"
